{
  "source": "patent US20260201064A1",
  "about": "(ISU ABXIS, published 2026)",
  "assay_in_all_cases": "BLI (Octet), antibody on AHC sensor",
  "key": {"[1]": {"molecular_target": "T1, recombinant human ASM protein (human, UniProt P17405 47-630)", "T1 construct": "Recombinant human ASM in solution; also called acid sphingomyelinase (ASM) protein", "T1 sequence": "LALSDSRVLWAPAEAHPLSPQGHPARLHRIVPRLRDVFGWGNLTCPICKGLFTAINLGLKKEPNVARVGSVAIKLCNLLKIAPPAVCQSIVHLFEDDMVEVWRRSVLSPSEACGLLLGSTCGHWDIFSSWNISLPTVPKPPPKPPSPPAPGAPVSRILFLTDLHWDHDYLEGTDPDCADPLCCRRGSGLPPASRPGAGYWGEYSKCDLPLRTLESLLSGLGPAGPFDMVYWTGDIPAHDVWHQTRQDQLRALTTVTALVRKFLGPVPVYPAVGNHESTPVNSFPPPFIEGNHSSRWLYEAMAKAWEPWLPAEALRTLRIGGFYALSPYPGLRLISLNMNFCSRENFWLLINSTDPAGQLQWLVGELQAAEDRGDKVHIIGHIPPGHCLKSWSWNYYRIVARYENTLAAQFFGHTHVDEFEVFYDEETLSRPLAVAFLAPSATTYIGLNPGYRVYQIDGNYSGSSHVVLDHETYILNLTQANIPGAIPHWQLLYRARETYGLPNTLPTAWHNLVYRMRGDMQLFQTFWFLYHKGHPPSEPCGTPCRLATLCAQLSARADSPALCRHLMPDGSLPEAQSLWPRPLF", "procedure": "(§1) The binding affinity, to the ASM protein, of the produced antibodies specifically binding to the ASM protein and the interactive dynamics therebetween were measured using an Octet® QK384 system (Pall Life Sciences).\n(§2) First, an antibody specifically binding to the ASM protein produced in Example 1 was captured using an anti-human IgG Fc capture (AHC) biosensor, and 1.25, 2.5, 5, 10, or 20 nM recombinant human ASM protein solution was added thereto. […] The association constant (Kₐ), dissociation constant (Kd), and equilibrium dissociation constant (KD) for each antibody were determined using Octet® analysis software (Pall Life® Sciences). As a result, the binding affinities, to the human ASM protein, of the antibodies with mutations in the heavy chain CDR regions of the antibody #9104 as depicted in Table 1 are shown in Table 5, and the binding affinities, to the human ASM protein, of the antibodies with mutations of the light chain CDR regions in the antibody #9104 as depicted in Table 2 are shown in Table 6.\nAfter the small-scale expression in the ExpiCHO cell line as described above, the binding affinity to the human ASM protein was investigated as described in Experimental Example 1. Specifically, the antibody produced by a combination of #9104v-H33 heavy chain variable region and #9104v-L23 light chain variable region was not expressed and thus excluded in the analysis of binding affinity to ASM protein."}, "[2]": {"molecular_target": "T1, recombinant human ASM protein", "procedure": "as §1, §2", "remark": "listed apart in the source"}, "[3]": {"molecular_target": "T1, recombinant human ASM protein", "remark": "listed apart in the source"}},
  "note": "Where two headings read alike, the source gives them in different places.",
  "data": [
    {"binder": "#9104 (antibody, V domains shown, Parental antibody; also called antibody #9104) VH: EVQLLESGGGLVQPGGSLRLSCAASGFTFSNYYMSWVRQAPGKGLEWVSGIYYGSGNIYYADSVKGRFTISRDNSKNTLYLQMNSLRAEDTAVYYCARDTPGFDYWGQGTLVTVSS VL: QSVLTQPPSASGTPGQRVTISCTGSSSNIGNNAVNWYQQLPGTAPKLLIYYDSHRPSGVPDRFSGSKSGTSASLAISGLRSEDEADYYCGAWDYSLSAYVFGGGTKLTVLG", "values": [
      {"measurement": "Kd", "setting": "[1]", "value": 2.19, "unit": "nM"},
      {"measurement": "koff", "setting": "[1]", "value": 0.000855, "unit": "s⁻¹"},
      {"measurement": "kon", "setting": "[1]", "value": 391000, "unit": "M⁻¹ s⁻¹"},
      {"measurement": "Kd", "setting": "[2]", "value": 2.25, "unit": "nM"},
      {"measurement": "koff", "setting": "[2]", "value": 0.000873, "unit": "s⁻¹"},
      {"measurement": "kon", "setting": "[2]", "value": 389000, "unit": "M⁻¹ s⁻¹"},
      {"measurement": "Kd", "setting": "[3]", "value": 2.25, "unit": "nM"},
      {"measurement": "koff", "setting": "[3]", "value": 0.000873, "unit": "s⁻¹"},
      {"measurement": "kon", "setting": "[3]", "value": 389000, "unit": "M⁻¹ s⁻¹"}
    ]}
  ]
}
